Laboratory results as given in PMC4219786, “Glycan Dependence of Galectin-3 Self-Association Properties” (PLoS ONE, 2014).

Key:
[1] = target: full length human Galectin-3 (1-250) (human) (UniProt P17931); assay: dynamic light scattering; before filtration, after purification and freezing at -80°C; no glycan; 41 µM CRD, 37 µM FL; 5 mM potassium phosphate pH 7.4; 25°C
[2] = target: full length human Galectin-3 (1-250) (human) (UniProt P17931); assay: dynamic light scattering; after centrifugation and filtration; with 140 µM LNnT (CRD up to 1.2 mM LNnT); 41 µM CRD, 37 µM FL; 5 mM potassium phosphate pH 7.4; 25°C
[3] = target: human Galectin-3 Carbohydrate Recognition Domain (114-250) (human) (UniProt P17931); assay: dynamic light scattering; before filtration, after purification and freezing at -80°C; no glycan; 41 µM CRD, 37 µM FL; 5 mM potassium phosphate pH 7.4; 25°C
Galectin-3 = target: T1, Galectin-3 (Homo sapiens, UniProt P17931); assay: SPR steady-state KD; 1H-15N HSQC NMR titration (slow exchange); assay type: binding
T1 construct: gene LGALS3; CRD domain (114–250), C-terminal 6His-tag
T1 sequence (P17931 114-250): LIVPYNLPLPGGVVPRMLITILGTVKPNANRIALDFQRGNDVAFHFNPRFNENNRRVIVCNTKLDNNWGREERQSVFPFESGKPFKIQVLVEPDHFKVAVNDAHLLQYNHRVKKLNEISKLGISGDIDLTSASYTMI

full length human Galectin-3 (1-250) (from UniProt P17931 1-250) (natural protein)
% mass of size >100 nm [1]: 67%
% mass of size <100 nm (46.73 nm), with 140 µM LNnT [2]: 8.7%
% mass of size >100 nm, with 140 µM LNnT [2]: 91.3%

human Galectin-3 Carbohydrate Recognition Domain (114-250) (from UniProt P17931 114-250) (domain or fragment)
% mass of size >100 nm [3]: 0.7%

CC(=O)N[C@H]1[C@H](O[C@H]2[C@@H](O)[C@@H](CO)O[C@@H](O[C@H]3[C@H](O)[C@@H](O)C(O)O[C@@H]3CO)[C@@H]2O)O[C@H](CO)[C@@H](O[C@@H]2O[C@H](CO)[C@H](O)[C@H](O)[C@H]2O)[C@@H]1O (some centres unmarked) [LNnT, lacto-N-neoTetraose]
Kd (Galectin-3): 140 ± 17 µM
